Assay results: patent publication US20150203577A1 (Chugai, published 2015)
Substitutions are numbered along the chain they refer to. Numbers in names are those of the source.

T1: mouse FcγRIII extracellular domain, C-terminally His-tagged (mouse, UniProt P08508 31-215)
T1 construct: the whole entry is named; also called mFcγRIII; mFcgRIII
T1 chain: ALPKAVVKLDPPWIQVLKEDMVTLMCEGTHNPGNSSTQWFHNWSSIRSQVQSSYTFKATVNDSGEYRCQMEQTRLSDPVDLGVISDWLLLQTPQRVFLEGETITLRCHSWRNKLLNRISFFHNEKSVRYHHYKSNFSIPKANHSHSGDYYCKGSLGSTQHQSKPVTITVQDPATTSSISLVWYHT

T2: mouse FcγRII extracellular domain, C-terminally His-tagged (mouse, UniProt P08101 30-210)
T2 construct: the whole entry is named; also called mFcγRII; mFcgRII
T2 sequence: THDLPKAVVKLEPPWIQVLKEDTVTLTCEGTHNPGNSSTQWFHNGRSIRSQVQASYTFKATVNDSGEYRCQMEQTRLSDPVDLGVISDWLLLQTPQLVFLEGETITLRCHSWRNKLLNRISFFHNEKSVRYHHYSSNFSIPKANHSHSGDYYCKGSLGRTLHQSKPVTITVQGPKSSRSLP

T3: mouse FcγRIII extracellular domain, C-terminal His tag (mouse, UniProt P08508 31-215)
T3 construct: Whole entry named; also called mFcγRIII; mFcgRIII
T3 chain: T1 chain

T4: mouse FcγRII extracellular domain, C-terminal His tag (mouse, UniProt P08101 30-210)
T4 construct: Whole entry named; also called mFcγRII; mFcgRII
T4 sequence: T2 sequence

T5: mouse FcγRII (mouse, UniProt P08101 30-210)
T5 construct: Extracellular domain with C-terminal His tag, made in FreeStyle 293 cells; also called mFcγRII; mFcgRII
T5 sequence: T2 sequence

T6: mouse FcγRIII (mouse, UniProt P08508 31-215)
T6 construct: Extracellular domain with C-terminal His tag, made in FreeStyle 293 cells; also called mFcγRIII; mFcgRIII
T6 chain: T1 chain

B1: H237-MB545/MRAL-k0 (antibody, mouse IgG1, kappa)
heavy: QVQLQESGPGLVKPSETLSLTCAVSGHSISHDHAWSWVRQPPGEGLEWIGFISYSGITNYNPSLQGRVTISRDNSKNTLYLQMNSLRAEDTAVYYCARSLARTTAMDYWGEGTLVTVSSAKTTPPSVYPLAPGSAAQTNSMVTLGCLVKGYFPEPVTVTWNSGSLSSGVHTFPAVLQSDLYTLSSSVTVPSSTWPSETVTCNVAHPASSTKVDKKIVPRDCGCKPCICEPNEVEMVFIFPPKPKDVLTITLTPKVTCVVVDISKDDPEVQFSWFVDDVEVHTAQTQPREEQFNLTFRSVSELPIMHQDWLNGKEFKCRVDSDAFPAPIEKTISKTKGRPKAPQVYTIPPPKEQMAKDKVSLTCMITDFFPEDITVEWQWNGQPAENYKNTQPIMDTDGSYFVYSKLNVQKSNWEAGNTFTCSVLHEGLHNHHTEKSLSHSPGK
light: not shown
notes: copies: 2 + 2
B2: H237-MB093/MRAL-k0 (antibody, mouse IgG1, kappa)
heavy: B1 heavy with E229T, P230V, N231P, M235S, L294S, D320N, D322A
light: not shown
notes: copies: 2 + 2
B3: H237-MB546/MRAL-k0 (antibody)
heavy: B1 heavy with D322A, K330R
light: not shown
notes: copies: 2 + 2
B4: H237-MB855/MRAL-k0 (antibody, mouse IgG1, kappa)
heavy: B1 heavy with M235L, Q291L, L294S, D320N, A323G, K330R
light: not shown
notes: copies: 2 + 2
B5: H237-MB528/MRAL-k0 (antibody, mouse IgG1, kappa)
heavy: B1 heavy with E229Q, M235E, D320N
light: not shown
notes: copies: 2 + 2
B6: H237-MB723/MRAL-k0 (antibody, mouse IgG1, kappa)
heavy: B1 heavy with P230D, N231Y, V233E, M235D, L294S, D320N, D322A
light: not shown
notes: copies: 2 + 2
B7: H237-MB548/MRAL-k0 (antibody, mouse IgG1, kappa)
heavy: B1 heavy with L294S, K330R
light: not shown
notes: copies: 2 + 2
B8: H237-MB125/MRAL-k0 (antibody, mouse IgG1, kappa)
heavy: B1 heavy with E229T, P230V, N231P, E234S, M235W, L294S, D320N, D322A
light: not shown
notes: copies: 2 + 2
B9: H237-MB092/MRAL-k0 (antibody, mouse IgG1, kappa)
heavy: B1 heavy with E229T, P230V, N231P, E234D, M235S, L294S, D320N, D322A
light: not shown
notes: copies: 2 + 2
B10: H237-MB546/MRAL-k0 (antibody, mouse IgG1, kappa)
heavy: B1 heavy with D322A, K330R
light: not shown
notes: copies: 2 + 2
B11: H237-MB865/MRAL-k0 (antibody, mouse IgG1, kappa)
heavy: B1 heavy with M235L, K264D, Q291L, L294S, D320N, A323G
light: not shown
notes: copies: 2 + 2
B12: H237-MB075/MRAL-k0 (antibody, mouse IgG1, kappa)
heavy: B1 heavy with E229T, P230V, N231P, V233E, E234S, M235S, L294S, D320N, D322A
light: not shown
notes: copies: 2 + 2
B13: H237-MB526/MRAL-k0 (antibody, mouse IgG1, kappa)
heavy: B1 heavy with E229Q, M235E, D320N, D322A
light: not shown
notes: copies: 2 + 2
B14: H237-MB549/MRAL-k0 (antibody, mouse IgG1, kappa)
heavy: B1 heavy with K330R
light: not shown
notes: copies: 2 + 2
B15: H237-MB853/MRAL-k0 (antibody, mouse IgG1, kappa)
heavy: B1 heavy with M235L, Q291L, L294S, D320N, A323G, P327Y
light: not shown
notes: copies: 2 + 2
B16: H237-MB722/MRAL-k0 (antibody)
heavy: B1 heavy with P230A, N231Y, V233E, M235D, L294S, D320N, D322A
light: not shown
notes: copies: 2 + 2
B17: H237-MB541/MRAL-k0 (antibody)
heavy: B1 heavy with D320N, D322A, K330R
light: not shown
notes: copies: 2 + 2
B18: H237-MB861/MRAL-k0 (antibody, mouse IgG1, kappa)
heavy: B1 heavy with M235L, K264D, L294S, A323G
light: not shown
notes: copies: 2 + 2
B19: H237-MB547/MRAL-k0 (antibody, mouse IgG1, kappa)
heavy: B1 heavy with D320N, K330R
light: not shown
notes: copies: 2 + 2
B20: H237-MB719/MRAL-k0 (antibody, mouse IgG1, kappa)
heavy: B1 heavy with M235Q, L294S, D320N, D322A
light: not shown
notes: copies: 2 + 2
B21: H237-MB146/MRAL-k0 (antibody, mouse IgG1, kappa)
heavy: B1 heavy with E229T, P230V, N231P, E234S, M235S, F237D, L294S, D320N, D322A
light: not shown
notes: copies: 2 + 2
B22: H237-MB864/MRAL-k0 (antibody, mouse IgG1, kappa)
heavy: B1 heavy with M235L, K264D, L294S, D320N, A323G, K330R
light: not shown
notes: '8239L' in r313c2 read as S239L; copies: 2 + 2
B23: H237-MB112/MRAL-k0 (antibody, mouse IgG1, kappa)
heavy: B1 heavy with E229T, P230V, N231P, E234S, M235F, L294S, D320N, D322A
light: not shown
notes: copies: 2 + 2

Columns and labels:
[1] = target: T1, mouse FcγRIII extracellular domain, …; experiment: SPR Biacore T200, KD ratio, template MB515
Text: (§1) The antibody H chain variable region used was the variable region H237 (SEQ ID NO: 1) of the H chain VH3-IgG1 of the anti-IL-6 receptor antibody Fv4-IgG1 described in WO2009/125825. The antibody L chain commonly used was the L chain MRAL-k0 (SEQ ID NO: 2) of the anti-IL-6 receptor antibody tocilizumab. H237-MB476/MRAL-k0 and H237-MB515/MRAL-k0 were used as templates to introduce new alterations. These variants were expressed and purified by the method of Reference Example 1 and evaluated for their binding to mFcγRII and mFcγRIII by the method of Reference Example 2 using Biacore T200.
(§2) Each altered antibody was analyzed for its interaction with each Fcγ receptor prepared above using Biacore T100 (GE Healthcare Japan Corp.), Biacore T200 (GE Healthcare Japan Corp.), Biacore A100, or Biacore 4000. The running buffer used was HBS-EP+ (GE Healthcare Japan Corp.). The assay temperature was set to 25° C. The sensor chips used were chips prepared by immobilizing Protein L (ACTIGEN or BioVision) onto Series S Sensor Chip CM5 (GE Healthcare Japan Corp.) or Series S Sensor Chip CM4 (GE Healthcare Japan Corp.) by the amine coupling method.
(§3) In order to calculate the KD value of each altered antibody for FcγR, kinetic analysis was conducted according to the following method: first, the antibody of interest was captured onto any of these chips and allowed to interact with mFcγR diluted with a running buffer. For the obtained sensorgram, the assay results were globally fit into the 1:1 Langmuir binding model using Biacore Evaluation Software to calculate an association rate constant ka (L/mol/s) and a dissociation rate constant kd (1/s). From these values, the dissociation constant KD (mol/L) was calculated.

[2] = target: T2, mouse FcγRII extracellular domain, …; experiment: SPR Biacore T200, KD ratio, template MB515
Text: as §1, §2, §3

[3] = target: T1, mouse FcγRIII extracellular domain, …; experiment: SPR Biacore T200, KD ratio
Text: as §1, §2, §3

[4] = target: T2, mouse FcγRII extracellular domain, …; experiment: SPR Biacore T200, KD ratio
Text: as §1, §2, §3

[5] = target: T3, mouse FcγRIII extracellular domain, …; experiment: SPR (Biacore T200); KD of H237-mIgG1/MRAL-k0 / KD of variant
[6] = target: T4, mouse FcγRII extracellular domain, …; experiment: as above
mouse FcγRII [7] = target: T5, mouse FcγRII; experiment: SPR (Biacore), KD of H237-mIgG1/MRAL-k0 / KD of variant
Description: as §2, §3

mouse FcγRIII [8] = target: T6, mouse FcγRIII; experiment: as above
Description: as §2, §3

mouse FcγRII [9] = target: T5, mouse FcγRII; experiment: SPR (Biacore), antibody captured on Protein L
mouse FcγRIII [10] = target: T6, mouse FcγRIII; experiment: SPR (Biacore), antibody captured on Protein L

Binder | relative mFcγRII-binding activity (mIgG1 = 1) (mouse FcγRII [7]) | relative mFcγRIII-binding activity (mIgG1 = 1) (mouse FcγRIII [8]) | Kd (mouse FcγRII [9]) | Kd (mouse FcγRIII [10]) | further results
B1 |  |  |  |  | relative mFcγRIII-binding activity (template = 1) [1]: 2.02 fold; relative mFcγRII-binding activity (template = 1) [2]: 1.19 fold; relative mFcγRIII-binding activity (mIgG1 = 1) [3]: 2.7 fold; relative mFcγRII-binding activity (mIgG1 = 1) [4]: 163 fold
B2 |  |  |  |  | relative mFcγRIII-binding activity (mIgG1 = 1) [5]: 0.61 fold; relative mFcγRII-binding activity (mIgG1 = 1) [6]: 2.48 fold
B3 | 158 fold | 5.6 fold | 1.33 nM | 50 nM | 
B4 | 36.2 fold | 1.1 fold | 5.81 nM | 248 nM | 
B5 | 375 fold | 14.6 fold | 0.56 nM | 19.3 nM | 
B6 | 11 fold | 0.4 fold | 19 nM | 645 nM | 
B7 |  |  |  |  | relative mFcγRIII-binding activity (template = 1) [1]: 2.99 fold; relative mFcγRII-binding activity (template = 1) [2]: 2.6 fold; relative mFcγRIII-binding activity (mIgG1 = 1) [3]: 3.9 fold; relative mFcγRII-binding activity (H237-mIgG1/MRAL-k0 = 1) [4]: ≥ 350 fold; relative mFcγRII-binding activity (mIgG1 = 1) [4]: 357 fold; relative mFcγRII-binding activity (template H237-MB515/MRAL-k0 = 1) [4]: ≥ 1.4 fold
B8 |  |  |  |  | relative mFcγRIII-binding activity (mIgG1 = 1) [5]: 0.48 fold; relative mFcγRII-binding activity (mIgG1 = 1) [6]: 0.81 fold
B9 |  |  |  |  | relative mFcγRIII-binding activity (mIgG1 = 1) [5]: 0.05 fold; relative mFcγRII-binding activity (mIgG1 = 1) [6]: 0.16 fold
B10 |  |  |  |  | relative mFcγRIII-binding activity (template = 1) [1]: 4.28 fold; relative mFcγRII-binding activity (template = 1) [2]: 1.15 fold; relative mFcγRIII-binding activity (mIgG1 = 1) [3]: 5.6 fold; relative mFcγRII-binding activity (mIgG1 = 1) [4]: 158 fold
B11 | 83.8 fold | 3.3 fold | 2.51 nM | 84.4 nM | 
B12 |  |  |  |  | relative mFcγRIII-binding activity (mIgG1 = 1) [5]: 0.07 fold; relative mFcγRII-binding activity (mIgG1 = 1) [6]: 0.12 fold
B13 | 232 fold | 8.5 fold | 0.904 nM | 33 nM | 
B14 |  |  |  |  | relative mFcγRIII-binding activity (template = 1) [1]: 4.11 fold; relative mFcγRII-binding activity (template = 1) [2]: 1.53 fold; relative mFcγRIII-binding activity (mIgG1 = 1) [3]: 5.4 fold; relative mFcγRII-binding activity (mIgG1 = 1) [4]: 210 fold
B15 | 35 fold | 1.1 fold | 5.99 nM | 249 nM | 
B16 | 26.1 fold | 0.8 fold | 8.04 nM | 341 nM | 
B17 | 103 fold | 3.3 fold | 2.04 nM | 86.4 nM | 
B18 | 76.8 fold | 2.4 fold | 2.74 nM | 117 nM | 
B19 |  |  |  |  | relative mFcγRIII-binding activity (template = 1) [1]: 3.43 fold; relative mFcγRII-binding activity (template = 1) [2]: 1.24 fold; relative mFcγRIII-binding activity (mIgG1 = 1) [3]: 4.5 fold; relative mFcγRII-binding activity (mIgG1 = 1) [4]: 170 fold
B20 | 70.4 fold | 2.3 fold | 2.98 nM | 122 nM | 
B21 |  |  |  |  | relative mFcγRIII-binding activity (mIgG1 = 1) [5]: 0.21 fold; relative mFcγRII-binding activity (mIgG1 = 1) [6]: 0.85 fold
B22 | 110 fold | 3.6 fold | 1.9 nM | 77.6 nM | 
B23 |  |  |  |  | relative mFcγRIII-binding activity (mIgG1 = 1) [5]: 0.27 fold; relative mFcγRII-binding activity (mIgG1 = 1) [6]: 0.47 fold
